Test results from the supplement of paper PMC10065799, “High-throughput profiling of sequence recognition by tyrosine kinases and SH2 domains using bacterial peptide display” (eLife, 2023).

Key:
SHP2-C SH2 = assay: SH2 binding enrichment of the phosphorylated peptide, bacterial display (enrichment ratio); higher = better substrate or ligand; peptides without Tyr show the background
c-Src SH2 = assay: as above
Grb2 SH2 = Grb2 SH2 (UniProt P62993); assay: as above
Fyn = Fyn (UniProt P06241); assay: phosphorylation enrichment, bacterial display (enrichment ratio); higher = better substrate or ligand; peptides without Tyr show the background
c-Abl (mouse) = assay: as above
FGFR1 = FGFR1 (UniProt P11362); assay: as above
EPHB2 = EPHB2 (UniProt P29323); assay: as above
Hck = Hck (UniProt P08631); assay: as above
Fes = Fes (UniProt P07332); assay: as above
AncSZ = assay: as above
EPHB1 = EPHB1 (UniProt P54762); assay: as above
FGFR3 = FGFR3 (UniProt P22607); assay: as above
c-Src = assay: as above
MERTK = MERTK (UniProt Q12866); assay: as above
Jak2 = Jak2 (UniProt O60674); assay: as above
Fer (mouse) = assay: as above
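Throughout, for SH2 binding enrichment of the phosphorylated peptide, bacterial display: peptide library displayed on the E. coli surface as eCPX fusions, selected cells deep-sequenced, score is each peptide's frequency after selection divided by its frequency in the input.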
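Throughout, for phosphorylation enrichment, bacterial display: 11-residue human phosphosite peptides and single-mutation variants displayed on the E. coli surface, counted by deep sequencing, each peptide's frequency after selection divided by its frequency in the unselected input library; frequency after pTyr selection over input frequency; kinase dosed for 20-30% of maximal phosphorylation in three min.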

Sequence of Jak2 (O60674 whole entry, looked up): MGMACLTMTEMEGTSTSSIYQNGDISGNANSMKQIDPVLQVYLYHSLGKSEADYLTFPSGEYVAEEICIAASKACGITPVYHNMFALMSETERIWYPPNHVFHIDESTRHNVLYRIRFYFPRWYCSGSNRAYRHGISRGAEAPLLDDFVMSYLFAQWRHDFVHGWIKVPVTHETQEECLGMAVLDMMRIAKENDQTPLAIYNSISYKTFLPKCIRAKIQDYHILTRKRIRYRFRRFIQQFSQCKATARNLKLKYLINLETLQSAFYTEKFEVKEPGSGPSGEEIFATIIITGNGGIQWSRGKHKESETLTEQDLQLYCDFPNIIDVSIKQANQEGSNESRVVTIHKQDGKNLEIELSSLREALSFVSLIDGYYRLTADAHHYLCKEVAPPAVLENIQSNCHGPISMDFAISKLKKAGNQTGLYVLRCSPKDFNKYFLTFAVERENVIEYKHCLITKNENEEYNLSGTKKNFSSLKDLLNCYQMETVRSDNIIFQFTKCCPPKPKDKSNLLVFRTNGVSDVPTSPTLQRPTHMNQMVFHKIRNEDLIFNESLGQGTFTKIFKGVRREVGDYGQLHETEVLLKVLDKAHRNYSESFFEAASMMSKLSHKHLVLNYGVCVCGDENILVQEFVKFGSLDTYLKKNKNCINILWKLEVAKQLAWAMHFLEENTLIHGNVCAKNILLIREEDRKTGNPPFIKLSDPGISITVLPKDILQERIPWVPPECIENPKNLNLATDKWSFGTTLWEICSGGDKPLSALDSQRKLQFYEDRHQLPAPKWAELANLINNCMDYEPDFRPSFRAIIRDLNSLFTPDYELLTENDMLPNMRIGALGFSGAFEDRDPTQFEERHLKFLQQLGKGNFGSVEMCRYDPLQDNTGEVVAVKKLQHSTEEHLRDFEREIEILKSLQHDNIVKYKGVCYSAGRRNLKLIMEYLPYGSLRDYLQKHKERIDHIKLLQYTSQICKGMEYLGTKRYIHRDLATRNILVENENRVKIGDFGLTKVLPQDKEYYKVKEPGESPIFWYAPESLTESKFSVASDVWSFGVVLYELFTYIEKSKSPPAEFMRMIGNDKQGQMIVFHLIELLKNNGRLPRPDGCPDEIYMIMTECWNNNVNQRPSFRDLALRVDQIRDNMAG
Sequence of Grb2 SH2 (P62993 whole entry, looked up): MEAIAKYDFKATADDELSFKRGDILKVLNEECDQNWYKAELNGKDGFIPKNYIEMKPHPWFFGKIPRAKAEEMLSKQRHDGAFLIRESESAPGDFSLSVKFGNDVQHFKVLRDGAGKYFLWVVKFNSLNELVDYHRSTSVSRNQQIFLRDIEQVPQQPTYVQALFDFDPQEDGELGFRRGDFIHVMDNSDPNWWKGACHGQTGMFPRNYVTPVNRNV
Sequence of Hck (P08631 whole entry, looked up): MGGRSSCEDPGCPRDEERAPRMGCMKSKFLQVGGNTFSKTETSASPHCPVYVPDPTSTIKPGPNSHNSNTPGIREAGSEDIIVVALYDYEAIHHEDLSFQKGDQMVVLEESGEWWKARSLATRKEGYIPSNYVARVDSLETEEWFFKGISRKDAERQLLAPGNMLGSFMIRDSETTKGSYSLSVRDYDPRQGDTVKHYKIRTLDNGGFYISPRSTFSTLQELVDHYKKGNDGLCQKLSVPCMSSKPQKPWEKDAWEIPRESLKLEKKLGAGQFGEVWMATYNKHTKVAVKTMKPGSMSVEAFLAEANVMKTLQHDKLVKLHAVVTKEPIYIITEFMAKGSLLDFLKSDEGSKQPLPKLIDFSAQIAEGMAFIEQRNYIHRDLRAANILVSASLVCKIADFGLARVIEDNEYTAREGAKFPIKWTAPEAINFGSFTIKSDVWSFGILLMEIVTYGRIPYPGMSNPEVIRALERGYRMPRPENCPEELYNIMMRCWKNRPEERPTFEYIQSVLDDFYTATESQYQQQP
Sequence of EPHB2 (P29323 whole entry, looked up): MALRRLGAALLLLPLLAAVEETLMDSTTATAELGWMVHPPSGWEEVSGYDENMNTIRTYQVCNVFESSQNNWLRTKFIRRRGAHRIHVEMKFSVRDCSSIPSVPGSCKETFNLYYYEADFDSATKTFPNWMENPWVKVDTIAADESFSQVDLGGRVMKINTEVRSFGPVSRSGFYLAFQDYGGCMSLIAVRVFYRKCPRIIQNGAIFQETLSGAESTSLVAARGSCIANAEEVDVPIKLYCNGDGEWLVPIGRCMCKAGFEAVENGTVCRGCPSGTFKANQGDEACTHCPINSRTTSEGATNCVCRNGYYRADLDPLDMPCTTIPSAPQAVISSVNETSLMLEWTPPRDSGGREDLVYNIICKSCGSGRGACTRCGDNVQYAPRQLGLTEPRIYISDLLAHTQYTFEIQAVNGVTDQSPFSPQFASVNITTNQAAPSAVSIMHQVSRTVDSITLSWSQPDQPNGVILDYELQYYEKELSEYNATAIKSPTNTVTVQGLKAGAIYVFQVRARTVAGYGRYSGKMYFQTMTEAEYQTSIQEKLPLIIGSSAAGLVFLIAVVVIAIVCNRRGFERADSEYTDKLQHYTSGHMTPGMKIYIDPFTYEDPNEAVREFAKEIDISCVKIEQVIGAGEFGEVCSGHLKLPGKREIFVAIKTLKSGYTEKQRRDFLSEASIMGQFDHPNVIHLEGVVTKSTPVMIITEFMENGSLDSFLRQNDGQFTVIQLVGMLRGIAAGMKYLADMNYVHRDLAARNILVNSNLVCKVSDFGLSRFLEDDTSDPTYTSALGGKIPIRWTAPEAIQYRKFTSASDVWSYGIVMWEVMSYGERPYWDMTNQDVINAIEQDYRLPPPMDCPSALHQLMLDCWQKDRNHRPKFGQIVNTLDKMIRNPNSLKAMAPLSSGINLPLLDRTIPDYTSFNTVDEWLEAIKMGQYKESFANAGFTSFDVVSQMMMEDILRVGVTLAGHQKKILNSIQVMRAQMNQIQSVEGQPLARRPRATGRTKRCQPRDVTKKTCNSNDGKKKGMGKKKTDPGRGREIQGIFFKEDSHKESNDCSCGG
Sequence of Fes (P07332 whole entry, looked up): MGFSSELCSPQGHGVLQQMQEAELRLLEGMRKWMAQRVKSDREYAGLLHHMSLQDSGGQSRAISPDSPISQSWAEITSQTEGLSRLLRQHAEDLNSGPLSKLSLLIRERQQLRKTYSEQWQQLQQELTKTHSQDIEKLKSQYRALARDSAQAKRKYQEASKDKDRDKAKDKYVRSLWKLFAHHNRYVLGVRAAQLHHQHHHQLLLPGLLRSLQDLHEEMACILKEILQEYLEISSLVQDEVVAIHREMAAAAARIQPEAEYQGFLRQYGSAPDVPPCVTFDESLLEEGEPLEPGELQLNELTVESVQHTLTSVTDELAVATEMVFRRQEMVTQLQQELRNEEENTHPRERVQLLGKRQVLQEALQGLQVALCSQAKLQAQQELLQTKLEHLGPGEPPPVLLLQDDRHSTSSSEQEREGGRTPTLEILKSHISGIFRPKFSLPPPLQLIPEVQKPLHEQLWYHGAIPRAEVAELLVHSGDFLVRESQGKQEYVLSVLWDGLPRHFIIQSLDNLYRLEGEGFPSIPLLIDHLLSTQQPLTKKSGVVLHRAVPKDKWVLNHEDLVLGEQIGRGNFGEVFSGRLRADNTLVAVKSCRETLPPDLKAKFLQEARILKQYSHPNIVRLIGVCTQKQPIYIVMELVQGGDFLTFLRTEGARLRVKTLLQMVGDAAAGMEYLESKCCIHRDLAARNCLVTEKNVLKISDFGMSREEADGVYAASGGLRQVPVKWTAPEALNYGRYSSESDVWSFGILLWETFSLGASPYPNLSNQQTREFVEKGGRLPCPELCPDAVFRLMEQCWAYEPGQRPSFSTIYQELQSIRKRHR
Sequence of FGFR3 (P22607 whole entry, looked up): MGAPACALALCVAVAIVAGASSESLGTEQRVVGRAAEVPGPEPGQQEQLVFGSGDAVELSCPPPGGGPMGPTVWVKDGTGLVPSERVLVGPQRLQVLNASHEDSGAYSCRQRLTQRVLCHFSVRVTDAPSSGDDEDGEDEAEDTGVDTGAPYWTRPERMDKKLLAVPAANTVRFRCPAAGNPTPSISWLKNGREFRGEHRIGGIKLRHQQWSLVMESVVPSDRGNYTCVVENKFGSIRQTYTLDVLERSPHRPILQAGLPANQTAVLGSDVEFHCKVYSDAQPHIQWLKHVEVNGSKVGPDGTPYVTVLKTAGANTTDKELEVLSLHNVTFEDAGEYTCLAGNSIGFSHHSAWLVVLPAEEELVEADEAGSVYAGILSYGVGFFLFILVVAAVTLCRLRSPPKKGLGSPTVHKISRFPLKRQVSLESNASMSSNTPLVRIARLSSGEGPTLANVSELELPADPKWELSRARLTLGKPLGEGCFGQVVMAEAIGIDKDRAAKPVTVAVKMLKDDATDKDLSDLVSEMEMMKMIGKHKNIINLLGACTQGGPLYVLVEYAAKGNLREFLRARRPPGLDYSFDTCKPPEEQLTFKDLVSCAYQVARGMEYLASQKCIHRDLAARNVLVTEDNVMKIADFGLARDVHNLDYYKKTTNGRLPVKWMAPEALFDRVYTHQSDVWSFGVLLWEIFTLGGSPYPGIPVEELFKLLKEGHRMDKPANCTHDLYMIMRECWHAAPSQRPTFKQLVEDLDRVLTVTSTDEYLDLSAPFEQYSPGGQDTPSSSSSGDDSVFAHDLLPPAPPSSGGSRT

Row | Sequence | SH2 binding enrichment (SHP2-C SH2) | SH2 binding enrichment (c-Src SH2) | SH2 binding enrichment (Grb2 SH2) | phosphorylation enrichment (Fyn) | phosphorylation enrichment (c-Abl (mouse)) | phosphorylation enrichment (FGFR1) | phosphorylation enrichment (EPHB2) | phosphorylation enrichment (Hck) | phosphorylation enrichment (Fes) | phosphorylation enrichment (AncSZ) | phosphorylation enrichment (EPHB1) | phosphorylation enrichment (FGFR3) | phosphorylation enrichment (c-Src) | phosphorylation enrichment (MERTK) | phosphorylation enrichment (Jak2) | phosphorylation enrichment (Fer (mouse))
1 | KNDSKYVVKGN [KIT_Y823_N822K] | 0.653 | 0.572 | 0.999 | 0.314 | 0.531 | 0.382 | 0.317 | 0.379 | 0.56 | 0.52 | 0.326 | 0.444 | 0.473 | 0.316 | 0.677 | 0.258
2 | VLTSKYHGGGG [HBA1_Y141_R142H] | 0.715 | 0.522 | 0.835 | 0.364 | 0.617 | 0.772 | 0.365 | 0.391 | 0.549 | 0.475 | 0.336 | 0.304 | 0.407 | 0.494 | 0.509 | 0.315
3 | RELGKYGLQAY [ALDH2_Y497_E496K] | 0.564 | 0.455 | 1.15 | 0.464 | 0.581 | 0.426 | 0.402 | 0.455 | 0.72 | 0.683 | 0.403 | 0.47 | 0.356 | 0.457 | 0.543 | 0.475
4 | CLRIDYERVSQ [DSP_Y1542_R1537C] | 0.599 | 0.567 | 0.816 | 0.524 | 0.96 | 0.574 | 1.03 | 0.631 | 1.57 | 1.23 | 1.48 | 1.04 | 0.517 | 0.475 | 1.38 | 0.674
5 | GLAELYEFKKK [CKAP5_Y1854_YF] | 0.864 | 0.533 | 2.2 | 0.554 | 0.451 | 0.487 | 0.348 | 0.559 | 0.705 | 0.534 | 0.307 | 0.48 | 0.665 | 0.381 | 0.619 | 0.43
6 | YKEQGYHRLPS [RIN1_Y681_P686S] | 0.853 | 0.751 | 0.802 | 0.366 | 0.455 | 0.485 | 0.366 | 0.279 | 0.508 | 0.531 | 0.245 | 0.485 | 0.439 | 0.413 | 0.763 | 0.363
7 | STTSDYQWDVS [MTDH_Y364] | 0.612 | 0.449 | 0.921 | 0.54 | 0.782 | 0.659 | 0.615 | 0.508 | 1.22 | 1.23 | 0.741 | 0.865 | 0.407 | 0.387 | 1.05 | 0.476
8 | MKKKIYAMGGG [GAN_Y424] | 0.979 | 0.679 | 1.15 | 0.297 | 0.519 | 0.376 | 0.302 | 0.414 | 0.465 | 0.397 | 0.335 | 0.341 | 0.393 | 0.432 | 0.39 | 0.389
9 | QHNPEYVQQAS [LRRC7_Y1058] | 0.64 | 0.561 | 0.712 | 0.486 | 0.641 | 0.486 | 0.604 | 0.69 | 0.867 | 0.843 | 0.542 | 0.65 | 0.597 | 0.423 | 0.544 | 0.73
10 | YDGKDYIALNE [HLA-A_Y147] | 0.604 | 0.452 | 0.692 | 0.532 | 0.909 | 0.843 | 0.792 | 0.583 | 1.27 | 1.41 | 1.06 | 0.953 | 0.48 | 0.457 | 1.18 | 0.551
11 | LYSGDYYRIQG [DDR2_Y740] | 0.531 | 0.984 | 1.02 | 11.5 | 7.77 | 32.7 | 30.3 | 10.4 | 1.83 | 7.93 | 29.2 | 26 | 10.5 | 19.3 | 23.8 | 1.81
12 | QYNMQYSSSAA [ERBB2IP_Y981_I979M] | 1.72 | 0.603 | 1.04 | 0.736 | 1.09 | 0.792 | 0.687 | 0.732 | 1.18 | 0.882 | 0.445 | 0.655 | 0.859 | 0.793 | 0.956 | 0.872
13 | LFVDVYGPSVP [NUBPL_Y109_D105Y_YF] | 0.684 | 0.42 | 0.921 | 1.16 | 0.717 | 0.482 | 0.545 | 1.5 | 1.34 | 1.23 | 0.576 | 0.709 | 1.47 | 0.355 | 1.17 | 0.748
14 | AGVIIYTSRFQ [PFAS_Y538_A535V] | 0.794 | 0.49 | 0.791 | 0.649 | 0.522 | 0.679 | 0.631 | 0.664 | 1.42 | 1.05 | 0.636 | 0.792 | 0.578 | 0.429 | 0.87 | 0.574
15 | VEFAKYGSLQG [RET_Y809_R813Q_YF] | 0.803 | 0.382 | 0.745 | 0.556 | 0.619 | 0.43 | 0.471 | 0.741 | 0.9 | 0.663 | 0.536 | 0.578 | 0.546 | 0.384 | 0.846 | 0.44
16 | DPEATYTTSGS [EPHA2_Y772_G777S] | 0.731 | 0.571 | 0.873 | 0.518 | 0.617 | 0.425 | 0.518 | 0.598 | 0.981 | 0.889 | 0.476 | 0.596 | 0.633 | 0.34 | 0.694 | 0.48
17 | NFDRVYIYHLR [MYOF_Y1137] | 5.25 | 0.896 | 1.23 | 0.858 | 0.718 | 0.575 | 0.618 | 0.782 | 1.23 | 1.19 | 0.593 | 0.755 | 1.01 | 0.528 | 1.03 | 0.612

Row | Sequence | SH2 binding enrichment (SHP2-C SH2) | SH2 binding enrichment (c-Src SH2) | SH2 binding enrichment (Grb2 SH2) | phosphorylation enrichment (Fyn) | phosphorylation enrichment (c-Abl (mouse)) | phosphorylation enrichment (FGFR1) | phosphorylation enrichment (EPHB2) | phosphorylation enrichment (Hck) | phosphorylation enrichment (Fes) | phosphorylation enrichment (AncSZ) | phosphorylation enrichment (EPHB1) | phosphorylation enrichment (FGFR3) | phosphorylation enrichment (c-Src) | phosphorylation enrichment (MERTK) | phosphorylation enrichment (Jak2) | phosphorylation enrichment (Fer (mouse))
18 | PLDEEYFTLQI [TP53_Y327_G325E] | 1.12 | 0.551 | 0.891 | 1.91 | 1.13 | 4.65 | 0.888 | 1.2 | 2.25 | 2.96 | 1.02 | 4.54 | 2.69 | 0.941 | 2.57 | 0.691
19 | KLPDAYERLIL [G6PD_Y437] | 0.723 | 2.48 | 0.949 | 0.491 | 0.796 | 0.992 | 0.49 | 0.582 | 0.944 | 0.756 | 0.545 | 0.561 | 0.542 | 0.522 | 0.591 | 0.634
20 | EQKKFYNAMKN [SCN5A_Y1495_K1500N_YF] | 0.527 | 0.381 | 0.751 | 0.367 | 0.446 | 0.366 | 0.33 | 0.388 | 0.43 | 0.458 | 0.297 | 0.427 | 0.409 | 0.458 | 0.41 | 0.451
21 | CLAKMYFSAVD [CP_Y539_YF] | 0.608 | 0.606 | 0.895 | 0.519 | 1.03 | 0.519 | 0.592 | 0.527 | 1.26 | 1.04 | 0.662 | 0.765 | 0.563 | 0.414 | 1.06 | 0.506
22 | EKKKYYDTKIE [CASP5_Y104] | 0.505 | 0.498 | 0.752 | 0.486 | 0.761 | 0.365 | 0.518 | 0.511 | 1.03 | 0.863 | 0.366 | 0.637 | 0.452 | 0.443 | 0.779 | 0.381
23 | GSSKIYFLHPD [TLR5_Y108] | 1.18 | 0.751 | 1.16 | 1.84 | 0.642 | 2.48 | 0.624 | 1.21 | 0.844 | 0.849 | 0.529 | 1.85 | 1.83 | 2.89 | 0.714 | 0.403
24 | RGEKQYLAAPL [ALOX12_Y295] | 0.431 | 0.409 | 0.709 | 0.436 | 0.504 | 0.754 | 0.461 | 0.545 | 0.416 | 0.777 | 0.402 | 0.341 | 0.505 | 0.377 | 0.523 | 0.365
25 | CSRRFYQLTKL [AR_Y858] | 0.488 | 0.406 | 0.663 | 0.462 | 0.508 | 0.455 | 0.548 | 0.507 | 0.718 | 0.79 | 0.407 | 0.528 | 0.527 | 0.448 | 0.698 | 0.468
26 | SSDPDYRAAVD [GLB1_Y154_L155R] | 0.668 | 0.627 | 0.78 | 0.449 | 0.669 | 0.556 | 0.589 | 0.527 | 0.988 | 0.926 | 0.508 | 0.635 | 0.409 | 0.471 | 0.793 | 0.507
27 | SVTCTFSPALN [TP53_Y126_Y126F] | 0.494 | 0.473 | 0.627 | 0.562 | 1.19 | 0.602 | 0.675 | 0.621 | 1.89 | 2.01 | 0.845 | 1.03 | 0.541 | 0.515 | 1.74 | 0.673
28 | VTHKEYFIFLE [CAMKV_Y95_R92H] | 1.98 | 1.32 | 1.78 | 0.623 | 0.755 | 2.2 | 1.36 | 0.54 | 1.36 | 1.08 | 1.13 | 1.87 | 1.29 | 0.516 | 1.29 | 0.596
29 | LSNFNYEQRGA [API5_Y497_G493S] | 0.706 | 0.48 | 0.897 | 1.14 | 1.11 | 0.918 | 1.15 | 0.509 | 1.51 | 1.21 | 0.796 | 1.02 | 1.14 | 0.796 | 1.41 | 0.651
30 | VLTPKYRGGGG [HBA1_Y141_S139P] | 0.691 | 0.557 | 1.03 | 0.363 | 0.421 | 0.348 | 0.372 | 0.32 | 0.464 | 0.498 | 0.328 | 0.413 | 0.34 | 0.35 | 0.335 | 0.364
31 | CTTIHYNFICN [TP53_Y234_M237I_YF] | 2.05 | 2.34 | 2 | 0.464 | 0.787 | 0.554 | 0.59 | 0.454 | 1.23 | 0.895 | 0.554 | 0.775 | 0.595 | 0.439 | 1.25 | 0.672
32 | RVLKLYGCSPS [ASTL_Y279] | 0.93 | 0.566 | 0.895 | 0.728 | 0.719 | 0.367 | 0.761 | 0.564 | 0.943 | 1.03 | 0.634 | 0.608 | 0.516 | 0.461 | 0.983 | 0.981
33 | RFVSRYIFNRE [HLA-DQB1_Y62_T60S_YF] | 1.2 | 0.499 | 0.733 | 1.05 | 0.867 | 0.852 | 0.744 | 0.79 | 1.46 | 1.86 | 1.13 | 0.934 | 0.916 | 0.994 | 2.14 | 0.976
